The data set deals with the molecule itself. The data set is described as follows: SEC-MALS. (SEC sorts molecules by how far they enter the pores of the column.)

Usually stoichiometry N stands for a count of units in the complex or per binding partner.

B1: miniTRIM37 RING–B-box-2–hcc B-box-2 mutant (other)
chain: MDEQSVESIAEVFRCFICMEKLRDARLCPHCSKLCCFSCIRRWLTEQRAQCPHCRAPLQLRELVNCRWAEEVTQQLDTLQLCSLTKHEENEKDKCENHHEKLSVFCWTCKKCICAQCAAWGGMHGGHTFKPLAEIYEQHVTKVNEEVAKLRRRLMELITERNQVAKRVPKAPPEEKEALIARGKALGEETELLESLLQEVEHQLRSCSKSELISKSSEILMMFQQVHRK
With B1, the “stoichiometry N” value was 2.

Source of the values: publication PMC13477270 (Nature structural & molecular biology, 2025).
